Biological target: T1, 6x-His-3C-EIF4A3 (human, UniProt P38919 1-411)
T1 construct: EIF4A3, human, full length; source: E. coli BL21 DE3 RIL, purified (HisTrap, HiTrapQ, Superdex 75); not shown: His6, N-terminal, kept
Assay: pull-down; MBP-tagged bait (ALYREF constructs or CASC3 SELOR) mixed overnight at 4 °C with EIF4A3, Y14(66-154)–MAGOH, ssRNA and AMP-PNP in 25 mM HEPES pH 7.9, 50 mM NaCl, 5 mM MgCl2; held on amylose resin, maltose elution, SDS-PAGE with Coomassie
Settings: both partners purified

T1 sequence (P38919 whole entry): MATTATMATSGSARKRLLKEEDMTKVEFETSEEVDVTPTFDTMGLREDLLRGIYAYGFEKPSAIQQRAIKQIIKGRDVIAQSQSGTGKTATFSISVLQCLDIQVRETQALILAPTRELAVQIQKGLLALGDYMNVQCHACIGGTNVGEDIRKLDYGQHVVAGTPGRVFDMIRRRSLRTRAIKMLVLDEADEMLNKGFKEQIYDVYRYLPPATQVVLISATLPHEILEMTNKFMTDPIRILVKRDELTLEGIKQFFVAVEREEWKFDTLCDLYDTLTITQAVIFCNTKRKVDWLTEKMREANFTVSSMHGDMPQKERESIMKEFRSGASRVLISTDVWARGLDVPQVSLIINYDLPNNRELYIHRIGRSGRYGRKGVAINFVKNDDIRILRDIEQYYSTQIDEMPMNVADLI

B1: 10x-His-MBP-3C-ALYREFN (ALYREF residues 1-182) (domain or fragment)
chain: not shown
notes: also called MBP-ALYREFN; source: E. coli BL21 DE3 RIL, purified (HisTrap, cation exchange, Superdex 75); not shown: His10, N-terminal, kept; MBP, N-terminal, kept
  binding result: binds
